T1: angiotensin I converting enzyme (ACE) (UniProt P12821)
T1 chain: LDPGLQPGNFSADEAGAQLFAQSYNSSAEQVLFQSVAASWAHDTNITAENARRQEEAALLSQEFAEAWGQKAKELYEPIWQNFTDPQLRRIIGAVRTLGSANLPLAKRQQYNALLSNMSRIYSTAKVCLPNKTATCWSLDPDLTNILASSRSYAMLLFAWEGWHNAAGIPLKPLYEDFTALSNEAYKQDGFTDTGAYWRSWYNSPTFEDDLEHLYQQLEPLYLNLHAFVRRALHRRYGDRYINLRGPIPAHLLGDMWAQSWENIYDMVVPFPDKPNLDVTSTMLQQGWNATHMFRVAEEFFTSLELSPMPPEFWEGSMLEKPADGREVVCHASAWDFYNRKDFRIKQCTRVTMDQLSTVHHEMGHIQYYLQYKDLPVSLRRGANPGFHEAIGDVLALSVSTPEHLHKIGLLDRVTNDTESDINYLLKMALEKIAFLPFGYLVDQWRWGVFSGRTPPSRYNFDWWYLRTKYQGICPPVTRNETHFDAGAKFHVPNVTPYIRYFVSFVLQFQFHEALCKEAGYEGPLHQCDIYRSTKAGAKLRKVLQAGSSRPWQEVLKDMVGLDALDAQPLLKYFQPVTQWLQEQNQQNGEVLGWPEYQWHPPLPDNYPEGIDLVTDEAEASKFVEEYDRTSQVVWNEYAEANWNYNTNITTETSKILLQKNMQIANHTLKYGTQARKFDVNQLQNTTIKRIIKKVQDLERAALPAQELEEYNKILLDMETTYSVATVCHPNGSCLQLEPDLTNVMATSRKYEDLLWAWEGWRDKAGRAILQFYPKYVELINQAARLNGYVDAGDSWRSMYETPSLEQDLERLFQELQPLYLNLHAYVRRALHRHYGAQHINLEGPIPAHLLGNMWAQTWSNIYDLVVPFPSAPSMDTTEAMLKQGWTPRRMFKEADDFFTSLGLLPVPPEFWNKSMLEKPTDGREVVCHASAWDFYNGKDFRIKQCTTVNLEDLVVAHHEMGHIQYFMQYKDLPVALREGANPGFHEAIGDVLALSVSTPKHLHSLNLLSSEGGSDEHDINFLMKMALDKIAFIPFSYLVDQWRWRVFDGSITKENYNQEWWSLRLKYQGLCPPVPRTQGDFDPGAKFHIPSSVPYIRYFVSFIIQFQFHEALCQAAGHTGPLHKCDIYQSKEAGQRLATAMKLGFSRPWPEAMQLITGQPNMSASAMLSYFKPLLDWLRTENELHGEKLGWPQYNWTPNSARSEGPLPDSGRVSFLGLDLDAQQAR


Target: T1, angiotensin I converting enzyme (ACE)
Assay: other, ACE inhibition

IC50	Binder
60 µM	NMAINPSK [NMAINPSK (CNαS2-(f25-32))]
14 µM	FPQYLQY [FPQYLQY (CNαS2-(f92-98))]
26.4 µM	ALNEINQFYQK [ALNEINQFYQK (CNαS2-(f81-91))]
15 µM	TVY [TVY (CNαS2-(f182-184))]
219 µM	ALNEINQFY [ALNEINQFY (CNαS2-(f81-89))]
4.3 µM	FALPQYLK [FALPQYLK (CNαS2-(f174-181))]
4.3 µM	FALPQY [FALPQY (CNαS2-(f174-179))]
